Measurements published in IntAct's records for PubMed 11168407.

B1: Serine acetyltransferase 3, mitochondrial (Arabidopsis thaliana (Mouse-ear cress)), Q39218 (parent)
chain: MLPVTSRRHFTMSLYMLRSSSPHINHHSFLLPSFVSSKFKHHTLSPPPSPPPPPPMAACIDTCRTGKPQISPRDSSKHHDDESGFRYMNYFRYPDRSSFNGTQTKTLHTRPLLEDLDRDAEVDDVWAKIREEAKSDIAKEPIVSAYYHASIVSQRSLEAALANTLSVKLSNLNLPSNTLFDLFSGVLQGNPDIVESVKLDLLAVKERDPACISYVHCFLHFKGFLACQAHRIAHELWTQDRKILALLIQNRVSEAFAVDFHPGAKIGTGILLDHATAIVIGETAVVGNNVSILHNVTLGGTGKQCGDRHPKIGDGVLIGAGTCILGNITIGEGAKIGAGSVVLKDVPPRTTAVGNPARLLGGKDNPKTHDKIPGLTMDQTSHISEWSDYVI

Variants of: B1
Settings: with cyskm_arath OASC

| effect of a mutation on the interaction | Variant |
| --- | --- |
| increasing interaction | MLPVTSRRHFTMSLYMLRSSSPHINHHSFLLPSFVSSKFKHHTLSPPPSPPPPPPMAACIDTCRTGKPQISPRDSSKHHDDESGFRYMNYFRYPDRSSFNGTQTKTLHTRPLLEDLDRDAEVDDVWAKIREEAKSDIAKEPIVSAYYHASIVSQRSLEAALANTLSVKLSNLNLPSNTLFDLFSGVLQGNPDIVESVKLDLLAVKERDPACISYVHCFLHFKGFLACQAHRIAHELWTQDRKILALLIQNRVSEAFAVDFHPGAKIGTGILLDHATAIVIGETAVVGNNVSILHNVTLGGTGKQCGDRAPKIGDGVLIGAGTCILGNITIGEGAKIGAGSVVLKDVPPRTTAVGNPARLLGGKDNPKTHDKIPGLTMDQTSHISEWSDYVI [H309A] |
| disrupting interaction | MLPVTSRRHFTMSLYMLRSSSPHINHHSFLLPSFVSSKFKHHTLSPPPSPPPPPPMAACIDTCRTGKPQISPRDSSKHHDDESGFRYMNYFRYPDRSSFNGTQTKTLHTRPLLEDLDRDAEVDDVWAKIREEAKSDIAKEPIVSAYYHASIVSQRSLEAALANTLSVKLSNLNLPSNTLFDLFSGVLQGNPDIVESVKLDLLAVKERDPACISYVHCFLHFKGFLACQAHRIAHELWTQDRKILALLIQNRVSEAFAVDFHPGAKIGTGILLDHATAIVIGETAVVGNNVSILHNVTLGGTGKQCGDRHPKIGDGVLIGAGTCILGNITIGEGAKIGAGSVVLKDVPPRTTAAGNPARLLGGKDNPKTHDKIPGLTMDQTSHISEWSDYVI [V353A] |

Variants of: B1
Settings: with cyskm_arath OASC
Remark: another data set of the same source

| effect of a mutation on the interaction | Variant |
| --- | --- |
| decreasing interaction | MLPVTSRRHFTMSLYMLRSSSPHINHHSFLLPSFVSSKFKHHTLSPPPSPPPPPPMAACIDTCRTGKPQISPRDSSKHHDDESGFRYMNYFRYPDRSSFNGTQTKTLHTRPLLEDLDRDAEVDDVWAKIREEAKSDIAKEPIVSAYYHASIVSQRSLEAALANTLSVKLSNLNLPSNTLFDLFSGVLQGNPDIVESVKLDLLAVKERDPACISYVHCFLHFKGFLACQAHRIAHELWTQDRKILALLIQNRVSEAFAVDFHPGAKIGTGILLDHATAIVIGETAVVGNNVSILHNVTLGGTGKQCGDRHPKIGDGVLIGAGTCILGNITIGEGAKIGAGSVVLKDVPPRTTAEGNPARLLGGKDNPKTHDKIPGLTMDQTSHISEWSDYVI [V353E] |
| decreasing interaction | MLPVTSRRHFTMSLYMLRSSSPHINHHSFLLPSFVSSKFKHHTLSPPPSPPPPPPMAACIDTCRTGKPQISPRDSSKHHDDESGFRYMNYFRYPDRSSFNGTQTKTLHTRPLLEDLDRDAEVDDVWAKIREEAKSDIAKEPIVSAYYHASIVSQRSLEAALANTLSVKLSNLNLPSNTLFDLFSGVLQGNPDIVESVKLDLLAVKERDPACISYVHCFLHFKGFLACQAHRIAHELWTQDRKILALLIQNRVSEAFAVDFHPGAKIGTGILLDHATAIVIGATAVVGNNVSILHNVTLGGTGKQCGDRHPKIGDGVLIGAGTCILGNITIGEGAKIGAGSVVLKDVPPRTTAVGNPARLLGGKDNPKTHDKIPGLTMDQTSHISEWSDYVI [E282A] |
